{
  "source": "patent US20090304717A1",
  "key": {"[1]": {"target": "PSMA (prostate-specific membrane antigen) (UniProt Q04609)", "sequence (Q04609 whole entry)": "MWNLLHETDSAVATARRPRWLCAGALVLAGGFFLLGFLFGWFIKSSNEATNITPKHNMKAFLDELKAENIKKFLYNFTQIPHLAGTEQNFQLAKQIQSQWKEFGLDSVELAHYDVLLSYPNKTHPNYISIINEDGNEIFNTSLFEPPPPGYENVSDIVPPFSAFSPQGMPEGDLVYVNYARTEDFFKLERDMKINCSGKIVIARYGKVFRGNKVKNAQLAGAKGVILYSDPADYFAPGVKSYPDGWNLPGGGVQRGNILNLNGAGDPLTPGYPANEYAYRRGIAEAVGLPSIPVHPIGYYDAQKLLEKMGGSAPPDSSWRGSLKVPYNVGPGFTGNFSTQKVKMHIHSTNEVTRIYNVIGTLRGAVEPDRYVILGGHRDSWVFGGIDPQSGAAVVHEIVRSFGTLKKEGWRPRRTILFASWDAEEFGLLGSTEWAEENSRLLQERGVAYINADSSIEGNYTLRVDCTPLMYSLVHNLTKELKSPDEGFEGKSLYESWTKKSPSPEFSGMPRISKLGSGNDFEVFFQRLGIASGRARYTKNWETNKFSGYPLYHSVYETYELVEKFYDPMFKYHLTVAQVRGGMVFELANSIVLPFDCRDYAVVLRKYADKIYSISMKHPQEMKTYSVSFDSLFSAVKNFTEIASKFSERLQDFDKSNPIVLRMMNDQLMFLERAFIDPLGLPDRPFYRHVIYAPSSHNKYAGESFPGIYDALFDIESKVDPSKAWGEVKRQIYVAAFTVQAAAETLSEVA", "assay": "flow", "conditions": "LNCaP cells, on ice, sigmoidal fit"}, "[2]": {"target": "PSMA (prostate-specific membrane antigen) (UniProt Q04609)", "assay": "cell_activity", "conditions": "cytotoxicity on LNCaP, no effect on PSMA-negative MCF-7"}, "[3]": {"conditions": "2'-F pyrimidines (library chemistry)"}},
  "data": [
    {"sequence": "GGGAGGACGAUGCGGAUCAGCCAUGUUUACGUCACUCCUUGUCAAUCCUCAUCGGCAGCGCCAUCAUGGACAAGAAUUGAAGCUUCUUCUUGUCCAUGAUGGCGCGG [xPSM-A-3-siEEF2]", "values": [
      {"measurement": "Kd", "setting": "[1]; [3]", "value": 26.7, "unit": "nM"},
      {"measurement": "EC50", "setting": "[2]; [3]", "value": 1510, "unit": "nM"}
    ]},
    {"sequence": "GGGAGGACGAUGCGGAUCAGCCAUGUUUACGUCACUCCUUGUCAAUCCUCAUCGGCUAAAAAUUGCGCCAUCAUGGACAAGAAUU / GGGAGGACGAUGCGGAUCAGCCAUGUUUACGUCACUCCUUGUCAAUCCUCAUCGGCAAAAAUUCUUGUCCAUGAUGGCGCGG [PSMA biv anneal siEEF2 (1+2 annealed)]", "values": [
      {"measurement": "Kd", "setting": "[1]; transcribed with Durascribe T7 kit (kit implies 2'-F pyrimidines)", "value": 46.5, "unit": "nM"}
    ]},
    {"sequence": "GGGAGGACGAUGCGGAUCAGCCAUGUUUACGUCACUCCUUGUCAAUCCUCAUCGGCUAAAAAUUGCGCCAUCAUGGACAAGAAUUAAUUAAGGGAGGACGAUGCGGAUCAGCCAUGUUUACGUCACUCCUUGUCAAUCCUCAUCGGCAAAAAUUCUUGUCCAUGAUGGCGCGGGAGCUCGAAUU [PSMB1-siEEF2]", "values": [
      {"measurement": "EC50", "setting": "[2]; transcribed with Durascribe T7 kit (kit implies 2'-F pyrimidines), +/-0.1246", "value": 517, "unit": "nM"}
    ]},
    {"sequence": "GGGAGGACGAUGCGGAUCAGCCAUGUUUACGUCACUCCUUGUCAAUCCUCAUCGGCUAAAAUUAGGCCUAUCUGCCCGUCAAUUAAAAAUUGGGAGGACGAUGCGGAUCAGCCAUGUUUACGUCACUCCUUGUCAAUCCUCAUCGGCAGCGCCAUCAUGGACAAGAAUUGAAGCUUCUUCUUGUCCAUGAUGGCGCGGAAAAAAAUUGACGGGCAGAUAGGCCUUUGAGCUCGAAUU [PSMB2-siEEF2]", "values": [
      {"measurement": "EC50", "setting": "[2]; transcribed with Durascribe T7 kit (kit implies 2'-F pyrimidines), +/-0.01282", "value": 212, "unit": "nM"}
    ]}
  ]
}
